Data from patent publication US20230167426A1 (UNIVERSITY OF MASSACHUSETTS, published 2023).

Experiments:
[1] = target: T1, 6×His-tagged NmeCas9 (Neisseria meningitidis Cas9) (Neisseria meningitidis, UniProt C9X1G5 1-1082); experiment: nickel affinity pulldown with 6×His-NmeCas9:sgRNA, SDS-PAGE/Coomassie
T1 construct: also called N. meningitidis Cas9; 6×His-NmeCas9; not shown: N-terminal 6xHis-TEV tag of vector pMCSG7
T1 sequence: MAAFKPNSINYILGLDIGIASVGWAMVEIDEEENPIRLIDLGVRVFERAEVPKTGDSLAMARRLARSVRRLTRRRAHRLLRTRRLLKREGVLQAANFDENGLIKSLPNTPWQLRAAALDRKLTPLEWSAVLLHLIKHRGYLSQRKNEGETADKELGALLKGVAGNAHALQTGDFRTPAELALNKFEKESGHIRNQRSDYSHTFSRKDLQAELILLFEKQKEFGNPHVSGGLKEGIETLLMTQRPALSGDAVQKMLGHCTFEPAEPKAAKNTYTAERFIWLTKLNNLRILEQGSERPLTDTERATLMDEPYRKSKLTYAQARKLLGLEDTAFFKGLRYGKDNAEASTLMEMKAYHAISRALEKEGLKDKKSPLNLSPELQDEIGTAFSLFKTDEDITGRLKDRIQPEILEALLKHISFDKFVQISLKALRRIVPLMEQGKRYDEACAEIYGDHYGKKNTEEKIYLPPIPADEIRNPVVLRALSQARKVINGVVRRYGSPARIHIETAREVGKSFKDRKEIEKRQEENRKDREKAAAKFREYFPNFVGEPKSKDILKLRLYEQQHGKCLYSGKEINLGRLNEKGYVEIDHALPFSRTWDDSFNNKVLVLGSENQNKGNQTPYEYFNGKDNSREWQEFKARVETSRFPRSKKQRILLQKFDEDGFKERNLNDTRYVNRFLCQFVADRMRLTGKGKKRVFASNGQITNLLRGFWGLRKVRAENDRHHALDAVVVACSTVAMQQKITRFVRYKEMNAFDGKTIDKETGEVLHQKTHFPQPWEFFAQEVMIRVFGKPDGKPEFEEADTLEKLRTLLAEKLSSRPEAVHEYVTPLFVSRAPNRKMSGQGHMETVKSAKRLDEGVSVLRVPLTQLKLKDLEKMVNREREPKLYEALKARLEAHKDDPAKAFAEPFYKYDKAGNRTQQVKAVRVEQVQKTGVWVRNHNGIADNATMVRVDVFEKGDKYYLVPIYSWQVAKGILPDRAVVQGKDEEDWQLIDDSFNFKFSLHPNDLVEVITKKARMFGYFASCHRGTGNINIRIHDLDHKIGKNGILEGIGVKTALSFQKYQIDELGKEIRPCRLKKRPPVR

[2] = target: T1, 6×His-tagged NmeCas9 (Neisseria …); experiment: cell-based or functional assay
[3] = target: T2, 6×His-MBP-tagged AnaCas9 (Cas9 from Actinomyces naeslundii) (Actinomyces naeslundii, UniProt J3F2B0 1-1101); experiment: nickel affinity pulldown with tagged AnaCas9, SDS-PAGE/Coomassie
T2 construct: not shown: 6×His-MBP tag
T2 sequence: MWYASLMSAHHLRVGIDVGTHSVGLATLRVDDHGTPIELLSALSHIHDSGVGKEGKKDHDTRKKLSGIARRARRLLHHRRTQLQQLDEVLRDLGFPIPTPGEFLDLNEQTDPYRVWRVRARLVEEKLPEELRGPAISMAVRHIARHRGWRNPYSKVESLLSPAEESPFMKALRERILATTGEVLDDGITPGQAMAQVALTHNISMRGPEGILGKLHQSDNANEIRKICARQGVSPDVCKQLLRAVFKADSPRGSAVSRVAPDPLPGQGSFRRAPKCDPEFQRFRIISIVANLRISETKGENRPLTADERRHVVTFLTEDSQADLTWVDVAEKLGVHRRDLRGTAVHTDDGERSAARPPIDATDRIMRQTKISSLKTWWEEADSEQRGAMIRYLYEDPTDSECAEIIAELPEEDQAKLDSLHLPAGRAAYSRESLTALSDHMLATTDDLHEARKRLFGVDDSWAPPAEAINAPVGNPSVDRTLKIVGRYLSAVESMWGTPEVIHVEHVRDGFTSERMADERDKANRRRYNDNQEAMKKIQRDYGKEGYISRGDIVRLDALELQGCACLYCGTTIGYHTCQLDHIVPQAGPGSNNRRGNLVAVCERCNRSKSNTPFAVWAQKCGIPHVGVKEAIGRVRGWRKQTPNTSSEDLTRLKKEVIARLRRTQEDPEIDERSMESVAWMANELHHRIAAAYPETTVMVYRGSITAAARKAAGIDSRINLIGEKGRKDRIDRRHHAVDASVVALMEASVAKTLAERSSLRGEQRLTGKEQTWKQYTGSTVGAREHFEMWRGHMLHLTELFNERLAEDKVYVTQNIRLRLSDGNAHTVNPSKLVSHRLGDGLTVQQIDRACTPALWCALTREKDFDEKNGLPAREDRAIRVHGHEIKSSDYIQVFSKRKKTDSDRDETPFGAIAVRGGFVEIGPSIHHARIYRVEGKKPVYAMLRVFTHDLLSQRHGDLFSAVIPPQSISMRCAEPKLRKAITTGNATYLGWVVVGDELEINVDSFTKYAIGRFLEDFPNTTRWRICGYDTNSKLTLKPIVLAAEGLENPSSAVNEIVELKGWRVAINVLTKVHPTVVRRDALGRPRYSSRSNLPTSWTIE

B1: AcrE2 (type I-E anti-CRISPR from Pseudomonas phage JBD88a) (other)
chain: MANTYLIDPRKNNDNSGERFTVDAVDITAAAKSAAQQILGEEFEGLVYRETGESNGSGMFQAYHHLHGTNRTETTVGYPFHVMEL
notes: also called Acr88a-32; Acr88-32
B1: no binding [1].

B2: FLAG-AcrIIC3Nme (AcrIIC3Nme with an N-terminal FLAG tag) (other)
chain: DYKDDDDKMAFKRAIIFTSFNGFEKVSRTEKRRLAKIINARVSIIDEYLRAKDTNASLDGQYRAFLFNDESPAMTEFLAKLKAFAESCTGISIDAWEIEESEYVRLPVERRDFLAAANGKEIFKI
notes: also called 6xHis-TEV-FLAG-AcrIIC3Nme (before TEV cleavage)
For B2, the “inhibition of in vitro DNA cleavage by NmeCas9, anti-CRISPR at 1:1 molar ratio” value [2] was ~50% and the binding result [3] was “no binding”.

B3: AcrIIC1Nme (Neisseria meningitidis Acr #1) (other)
chain: MANKTYKIGKNAGYDGCGLCLAAISENEAIKVKYLRDICPDYDGDDKAEDWLRWGTDSRVKAAALEMEQYAYTSVGMASCWEFVEL
notes: also called Acr1Nm
With B3 the “inhibition of in vitro DNA cleavage by NmeCas9, anti-CRISPR at 1:1 molar ratio” value [2] was ~50% and the binding result [3] was “no binding”.
